Results taken from paper PMC6703946 (Molecular microbiology, 2019).

Molecular target: T1, Spx with N-terminal His6 tag (S. aureus, UniProt P60379 1-131)
T1 sequence (looked up): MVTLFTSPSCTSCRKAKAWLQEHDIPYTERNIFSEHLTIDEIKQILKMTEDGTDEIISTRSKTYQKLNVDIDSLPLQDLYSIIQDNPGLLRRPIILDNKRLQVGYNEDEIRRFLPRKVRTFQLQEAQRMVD
Assay: native gel or EMSA

B1: αCTD (residues 245 to 314 of the RNA polymerase α subunit RpoA) (domain or fragment, S. aureus, UniProt Q2FW32 245-314, looked up)
chain: KEKVLEMSIEELDLSVRSYNCLKRAGINSVQELADKSEADMMKVRNLGRKSLEEVKYKLEDLGLGLRKED
B1: binds.
